Substitutions are numbered along the chain they refer to. Names may count otherwise.
B1: GST-tagged PRPF6 middle HAT-containing domain (PRPF6M, residues 307-607) (domain or fragment, human, UniProt O94906 307-607, looked up)
chain: HHPPAWIASARLEEVTGKLQVARNLIMKGTEMCPKSEDVWLEAARLQPGDTAKAVVAQAVRHLPQSVRIYIRAAELETDIRAKKRVLRKALEHVPNSVRLWKAAVELEEPEDARIMLSRAVECCPTSVELWLALARLETYENARKVLNKARENIPTDRHIWITAAKLEEANGNTQMVEKIIDRAITSLRANGVEINREQWIQDAEECDRAGSVATCQAVMRAVIGIGIEEEDRKHTWMEDADSCVAHNALECARAIYAYALQVFPSKKSVWLRAAYFEKNHGTRESLEALLQRAVAHCPKA
notes: PRPF6 (U5-102 kD protein), human, residues 307-607, HAT domains 1-5 according to Pfam analysis; Cloned in pGEX6P-1 via EcoRI and SalI; also called GST-PRPF6M; PRP6F-M; not shown: GST, N-terminal, kept
B2: His-tagged PRPF31 A216P mutant (natural protein, human, UniProt Q8WWY3 1-499, looked up)
chain: MSLADELLADLEEAAEEEEGGSYGEEEEEPAIEDVQEETQLDLSGDSVKTIAKLWDSKMFAEIMMKIEEYISKQAKASEVMGPVEAAPEYRVIVDANNLTVEIENELNIIHKFIRDKYSKRFPELESLVPNALDYIRTVKELGNSLDKCKNNENLQQILTNATIMVVSVTASTTQGQQLSEEELERLEEACDMALELNASKHRIYEYVESRMSFIPPNLSIIIGASTAAKIMGVAGGLTNLSKMPACNIMLLGAQRKTLSGFSSTSVLPHTGYIYHSDIVQSLPPDLRRKAARLVAAKCTLAARVDSFHESTEGKVGYELKDEIERKFDKWQEPPPVKQVKPLPAPLDGQRKKRGGRRYRKMKERLGLTEIRKQANRMSFGEIEEDAYQEDLGFSLGHLGKSGSGRVRQTQVNEATKARISKTLQRTLQKQSVVYGGKSTIRDRSSGTASSVAFTPLQGLEIVNPQAAEKKVAEANQKYFSSMAEFLKVKGEKSGLMST
notes: PRPF31 splicing factor, human, with the RP11 patient missense mutation A216P, cDNA in pTriEx-1; A216P is a disease mutation found in RP11 patients; also called mutant PRPF31; not shown: His tag, C-terminal, kept

Experiments:
Experiment in all cases: pull-down; GST-tagged PRPF6 domain from 100 µl E. coli extract bound to glutathione sepharose beads in PBS, excess removed and beads washed; 0.1 nmol purified His-tagged PRPF31 added in 200 µl, 30 min at 4 °C; three washes with chilled PBS, eluted with reduced glutathione; Western blots with Penta-His and anti-GST antibodies; bands quantified and normalised to WT, four determinations
Conditions in all cases: both partners purified
[1] = target: T1, His-tagged PRPF31, wild type (human, UniProt Q8WWY3 1-499)
T1 construct: also called WT PRPF31; PRPF31-His; not shown: His tag, C-terminal, kept
T1 sequence (looked up): B2 chain with P216A

[2] = target: T2, GST-tagged PRPF6 C-terminal HAT-containing domain (PRPF6C, residues 607-941) (human, UniProt O94906 607-941)
T2 construct: PRPF6 (U5-102 kD protein), human, residues 607-941, HAT domains 6-9 according to Pfam analysis; the forward primer printed for PRPF6C is nearly the same as that of PRPF6M; Cloned in pGEX6P-1 via EcoRI and SalI; also called GST-PRPF6C; PRP6F-C; not shown: GST, N-terminal, kept
T2 sequence (looked up): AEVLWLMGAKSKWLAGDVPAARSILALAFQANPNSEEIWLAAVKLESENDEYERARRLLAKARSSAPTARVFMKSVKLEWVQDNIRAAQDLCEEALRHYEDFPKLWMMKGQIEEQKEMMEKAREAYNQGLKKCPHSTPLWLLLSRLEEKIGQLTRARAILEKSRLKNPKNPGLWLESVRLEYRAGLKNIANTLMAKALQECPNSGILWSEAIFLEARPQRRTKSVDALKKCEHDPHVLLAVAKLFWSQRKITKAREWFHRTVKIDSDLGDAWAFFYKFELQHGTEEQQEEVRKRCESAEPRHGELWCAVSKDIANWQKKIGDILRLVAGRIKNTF

[3] = target: B1

Binder | binding result [1] | ratio of mutant:WT PRPF31 band in the pull-down [2] | ratio of mutant:WT PRPF31 band in the pull-down [3]
B1 | binds | – | –
B2 | – | 2.1 fold (mutant:WT) | 4.2 fold (mutant:WT)

— PMC2324120, “Disease mechanism for retinitis pigmentosa (RP11) caused by missense mutations in the splicing factor gene PRPF31” (Molecular Vision, 2008)
